Consider 23 molecules from US20240400708A1.

Changes are numbered by the printed parent chain. Numbers in names are those of the source.

B1: feline IgG1a mutant ID No. 279: S252R, S434Y (antibody, part only; not given: Variable domains, not shown: another chain or arm of the molecule)
constant: ASTTAPSVFPLAPSCGTTSGATVALACLVLGYFPEPVTVSWNSGALTSGVHTFPAVLQASGLYSLSSMVTVPSSRWLSDTFTCNVAHPPSNTKVDKTVRKTDHPPGPKPCDCPKCPPPEMLGGPSIFIFPPKPKDTLRISRTPEVTCLVVDLGPDDSDVQITWFVDNTQVYTAKTSPREEQFNSTYRVVSVLPILHQDWLKGKEFKCKVNSKSLPSPIERTISKAKGQPHEPQVYVLPPAQEELSRNKVSVTCLIKSFHPPDIAVEWEITGQPEPENNYRTTPPQLDSDGTYFVYSKLSVDRSHWQRGNTYTCSVSHEALHYHHTQKSLTQSPGK
B2: feline IgG1a mutant ID No. 329: S428Y, D312P, S434Y, Q311H, L314K (antibody, part only; not given: Variable domains, not shown: another chain or arm of the molecule; small tags and cut ends)
constant: B1 constant with R138S, Q197H, D198P, L200K, S316Y
B3: feline IgG1a mutant ID No. 308: P247V, S252H (antibody, part only; not given: Variable domains, not shown: another chain or arm of the molecule; small tags and cut ends)
constant: B1 constant with P133V, R138H, Y322S
B4: feline IgG1a mutant ID No. 299: S428Y, Q311W, D312P, L314K, S434Y (antibody, part only; not given: variable domains and light chain, not shown: another chain or arm of the molecule)
constant: B1 constant with R138S, Q197W, D198P, L200K, S316Y
B5: feline IgG1a mutant ID No. 291: S252Y, S428Y, Q311W, D312P, L314K (antibody, part only; not given: Variable domains, not shown: another chain or arm of the molecule; small tags and cut ends)
constant: B1 constant with R138Y, Q197W, D198P, L200K, S316Y, Y322S
B6: feline IgG1a mutant ID No. 341: S252Y, S428M, S434F, D312A (antibody, part only; not given: Variable domains, not shown: another chain or arm of the molecule; small tags and cut ends)
constant: B1 constant with R138Y, D198A, S316M, Y322F
B7: feline IgG1a mutant ID No. 316: S428M, A431K (antibody, part only; not given: Variable domains, not shown: another chain or arm of the molecule)
constant: B1 constant with R138S, S316M, A319K, Y322S
B8: feline IgG1a mutant ID No. 287: S252Y, S428Y, D312P, L314K, S434Y (antibody, part only; not given: Variable domains, not shown: another chain or arm of the molecule)
constant: B1 constant with R138Y, D198P, L200K, S316Y
B9: feline IgG1a mutant ID No. 328: S428Y, D312P, S434Y, P247V, T250Q, S252H (antibody, part only; not given: Variable domains, not shown: another chain or arm of the molecule; small tags and cut ends)
constant: B1 constant with P133V, T136Q, R138H, D198P, S316Y
B10: feline IgG1a mutant ID No. 333: S428Y, D312P, S434Y, Q311Y, L314K (antibody, part only; not given: Variable domains, not shown: another chain or arm of the molecule; small tags and cut ends)
constant: B1 constant with R138S, Q197Y, D198P, L200K, S316Y
B11: feline IgG1a mutant ID No. 295: S252Y, S428Y, Q311W, L314K, S434Y (antibody, part only; not given: Variable domains, not shown: another chain or arm of the molecule; small tags and cut ends)
constant: B1 constant with R138Y, Q197W, L200K, S316Y
B12: feline IgG1a mutant ID No. 335: T250Q, S252H (antibody, part only; not given: Variable domains, not shown: another chain or arm of the molecule)
constant: B1 constant with T136Q, R138H, Y322S
B13: feline IgG1a mutant ID No. 296: S252Y, S428Y, Q311W, S434Y (antibody, part only; not given: Variable domains, not shown: another chain or arm of the molecule; small tags and cut ends)
constant: B1 constant with R138Y, Q197W, S316Y
B14: feline IgG1a mutant ID No. 292: S252Y, S428Y, Q311W, D312P, L314K, S434Y (antibody, part only; not given: variable domains and light chain, not shown: another chain or arm of the molecule; small tags and cut ends)
constant: B1 constant with R138Y, Q197W, D198P, L200K, S316Y
B15: feline IgG1a mutant ID No. 297: S428Y, D312P, L314K, S434Y (antibody, part only; not given: Variable domains, not shown: another chain or arm of the molecule)
constant: B1 constant with R138S, D198P, L200K, S316Y
B16: feline IgG1a mutant ID No. 303: A431K, S434Y (antibody, part only; not given: variable domains and light chain, not shown: another chain or arm of the molecule)
constant: B1 constant with R138S, A319K
B17: feline IgG1a mutant ID No. 290: S252Y, S428Y, Q311W, D312P (antibody, part only; not given: Variable domains, not shown: another chain or arm of the molecule; small tags and cut ends)
constant: B1 constant with R138Y, Q197W, D198P, S316Y, Y322S
B18: feline IgG1a mutant ID No. 289: S252Y, S428Y, L314K, S434Y (antibody, part only; not given: Variable domains, not shown: another chain or arm of the molecule)
constant: B1 constant with R138Y, L200K, S316Y
B19: feline IgG1a mutant ID No. 300: S428Y, Q311W, D312P, S434Y (antibody, part only; not given: Variable domains, not shown: another chain or arm of the molecule)
constant: B1 constant with R138S, Q197W, D198P, S316Y
B20: feline IgG1a mutant ID No. 327: S428Y, D312P, S434Y, P247V, T250Q (antibody, part only; not given: Variable domains, not shown: another chain or arm of the molecule; small tags and cut ends)
constant: B1 constant with P133V, T136Q, R138S, D198P, S316Y
B21: feline IgG1a mutant ID No. 310: P247V, T250Q, S252H (antibody, part only; not given: variable domains and light chain, not shown: another chain or arm of the molecule; small tags and cut ends)
constant: B1 constant with P133V, T136Q, R138H, Y322S
B22: feline IgG1a mutant ID No. 332: S428Y, D312P, S434Y, Q311R, L314K (antibody, part only; not given: Variable domains, not shown: another chain or arm of the molecule; small tags and cut ends)
constant: B1 constant with R138S, Q197R, D198P, L200K, S316Y
B23: feline IgG1a mutant ID No. 342: S252Y, S428M, S434F, D312P (antibody, part only; not given: Variable domains, not shown: another chain or arm of the molecule; small tags and cut ends)
constant: B1 constant with R138Y, D198P, S316M, Y322F

One assay addresses feline FcRn complex (FcRn-α subunit and β-microglobulin) (feline). The experiment in a line: SPR (Biacore), FcRn on SA chip, pH 7.4. Background: SPR reads the build-up and loss of mass on a sensor chip optically.
Usually Kd stands for the concentration at which binding is half-saturated. Higher therefore signals lower affinity. Molecule B1 yielded a Kd of 12100 nM.

B2: the equilibrium dissociation constant (Kd) was determined as 18.9 nM.

In turn, B3 returned a Kd of 17.9 nM.

For B4, the equilibrium dissociation constant (Kd) was 79.6 nM.

B5 gave a dissociation constant (Kd) of 16700 nM.

In turn, B6 showed an equilibrium dissociation constant (Kd) of 6.5 nM.

The molecule B7 returned a Kd of 2420 nM.

B8 gave an equilibrium dissociation constant (Kd) of 127 nM.

The molecule B9 returned an equilibrium dissociation constant (Kd) of 8.68 nM.

B10 had a Kd of 25.9 nM.

Consider B11, for which the equilibrium dissociation constant (Kd) came out at 201 nM.

The molecule B12 had a Kd of 36.9 nM.

B13 registered a dissociation constant (Kd) of 1480 nM.

B14 yielded a dissociation constant (Kd) of 2720 nM.

With B15, the Kd is 82.9 nM.

Regarding B16, the Kd came to 26.3 nM.

In the case of B17, the dissociation constant Kd was determined as 254 nM.

Consider B18, for which the Kd is 132 nM.

Regarding B19, the Kd is 182 nM.

Regarding B20, the dissociation constant Kd is 27.4 nM.

Molecule B21 showed a dissociation constant Kd of 24.4 nM.

In turn, B22 had a Kd of 28.6 nM.

The molecule B23 had an equilibrium dissociation constant (Kd) of 3.29 nM.

Another assay has the same target. Briefly: SPR (Biacore), FcRn on SA chip, pH 6.
The molecule B1 displayed a Kd of 10.8 nM.

In turn, B2 had a Kd of 0.338 nM.

B3 registered a Kd of 5.61 nM.

In the case of B4, the dissociation constant Kd is 1.17 nM.

On to B5, for which the Kd was determined as 39.7 nM.

Molecule B6 registered a dissociation constant (Kd) of 0.0353 nM.

The molecule B7 yielded a Kd of 4.87 nM.

Turning to B8, the dissociation constant Kd stood at 0.633 nM.

In turn, B9 had a dissociation constant (Kd) of 0.0418 nM.

Take B10: the dissociation constant Kd was 0.908 nM.

Take B11: the equilibrium dissociation constant (Kd) came out at 0.675 nM.

Regarding B12, the dissociation constant Kd stood at 8.02 nM.

Turning to B13, the Kd was determined as 0.544 nM.

B14 yielded a Kd of 4.01 nM.

Regarding B15, the Kd was 0.898 nM.

B16: the Kd was 1.33 nM.

Turning to B17, the Kd was found to be 3.08 nM.

Take B18: the dissociation constant Kd amounted to 0.808 nM.

B19: the dissociation constant Kd came to 0.235 nM.

In the case of B20, the equilibrium dissociation constant (Kd) was 0.221 nM.

Turning to B21, the dissociation constant (Kd) was determined as 8.21 nM.

B22: the Kd worked out at 0.332 nM.

B23 had a Kd of 0.0063 nM.
